Laboratory results: US11026972B2, “Methods for generating macrophages with enhanced cancer phagocytosis” (Georgia State University Research Foundation, Inc., priority 2016, dated 2021)

B1: IL-17: recombinant murine cytokine interleukin IL-17 (also known as IL-17A), PeproTech (protein, UniProt Q62386 26-158, looked up)
Interleukin-17A: AAIIPQSSACPNTEAKDFLQNVKVNLKVFNSLGAKVSSRRPSDYLNRSTSPWTLHRNEDPDRYPSVIWEAQCRHQRCVNAEGKLDHHMNSVLIQQEILVLKREPESCPFTFRVEKMLVGVGCTCVASIVRQAA

What was measured:
[1] = system: SIRPα^−/− and CD47^−/− mice; assay: Acute anemia and splenomegaly in mice deficient of CD47-SIRPα-mediated inhibition under inflammatory conditions; assay type: in vivo, mouse
Description: FIGS. 1A-1K illustrate our assessment of acute anemia in mice deficient of CD47-SIRPα-mediated inhibition under inflammatory conditions. FIG. 1A includes a schematic drawing of a wild type (WT) and targeted allele of SIRPα (“SIRPα”) and data related to the generation of SIRPα “knock out” (KO) mice. […] Western blot (WB) analysis confirmed the depletion of SIRPα (˜120 kDa) protein in bone marrow leukocytes from SIRPα^−/− mice. FIG. 1B includes a photograph of intestinal tissue and a line graph charting the change in body weight of mice in which colitis had been induced by treatment with 1% or 2% DSS. […] FIGS. 1C and 1D include data related to acute anemia and splenomegaly developed in SIRPα^−/− mice with colitis. WT mice and SIRPα^−/− mice treated with DSS (2% DSS for WT and 1% DSS for SIRPα^−/−) for 10 days were analyzed for the presence of […] (FIG. 1C) and the content of hemoglobin in peripheral blood (FIG. 1D). FIG. 1E includes a panel of photomicrographs in which hematoxylin and eosin (H&E) was used to stain sections of spleens from WT and SIRPα^−/− mice treated with 2% and 1% DSS for 10 days. The bar graph of FIG. 1E illustrates the hemoglobin content in the spleens of WT and SIRPα^−/− mice treated with water or DSS. FIG. 1F is a pair of line graphs showing the time course over which anemia developed in SIRPα^−/− mice when colitis was induced with DSS and the levels of IL-17 in the serum over that same period of time. FIG. 1G is a diagram showing that IL-17 neutralization ameliorates anemia and splenomegaly in SIRPα^−/− mice with colitis. An anti-IL-17 antibody (10 μg, i.v.) was given on days 6 and 8 (arrows) during DSS-induction of colitis. FIG. 1H is a diagram showing that IL-17-containing colitic serum induces acute anemia in SIRPα^−/− mice. Serum samples collected from healthy (Ctl.) and colitic WT mice (2% DSS, 10 d) were administered to healthy SIRPα^−/− mice (i.v., 3×, arrows) with or without an anti-IL-17 antibody. FIGS. 1I and 1J are illustrative graphs showing that IL-17 directly induces acute anemia and splenomegaly in SIRPα^−/− mice and Cd47^−/− mice. Healthy mice were given recombinant IL-17 (10 μg/kg, i.v.) on days 1 and 3 (arrows, FIG. 1J); anemia and splenomegaly were analyzed on day 5 (FIG. 1I) or in a time course manner (FIG. 1J). FIG. 1K includes diagrams showing that acute anemia and splenomegaly in SIRPα^−/− and Cd47^−/− mice under zymosan-peritonitis (3×, every other day), IL-6 administration ([…], i.v.), LPS (0.25 mg/kg, i.p.), and CFA (1×, s.c.) administrations. Error bars are ±SEM **P<0.01, ***P<0.001 vs. control or the beginning time point. Data presented in each panel represent at least three independent experiments with n≥4, if applicable.
Hemoglobin assay: To assay blood hemoglobin, 10 μl of whole blood were obtained from the tail vein followed by lysis in 1 ml distilled water. After centrifugation (13,000 rpm, 30 min), the hemoglobin-containing supernatants were collected and measured for the optical density at the wavelength of 540 nm.
Animal inflammation models: To induce peritonitis, mice (6-8 wk, 20-22 g) were intraperitoneally injected with 0.5 mg zymosan A (Sigma) in 0.5 ml sterile PBS followed by euthanasia at 2, 4, 6 and 8 hours. […] The colitic condition was then assessed by observing diarrhea, measuring body weight loss, increases of inflammatory cytokines, the shortage of the large intestine and intestinal tissue analyses (after euthanasia). […]

[2] = system: SIRPα; assay: SIRPα immunoprecipitation and WB detection of SIRPα ITIM phosphorylation and SHP-1 association; assay type: cell-based, mouse; conditions: WT macrophages after LPS or IL-17 treatment
Protocol: FIGS. 4A-4E include data related to our experiments on macrophage phagocytic plasticity. FIG. 4A is a panel of illustrative line graphs showing that IL-10 inhibits macrophage phagocytosis toward “self.” PEMs were treated with LPS and activating cytokines along with various concentrations of IL-10 before testing their ability to phagocytose RBCs. FIG. 4B illustrates the phagocytic plasticity of WT red pulp macrophages. […] Treatments of cultured macrophages with LPS and IL-17 re-elicited their phagocytosis toward RBCs. […] Error bars are ±SEM. ***P<0.001 vs. freshly isolated splenic macrophages. FIG. 4D includes microscopic images of RBC phagocytosis by LPS- and IL-17-treated splenic macrophages. […] WT PEMs treated with LPS or IL-17 were further treated with Cd47^+ RBCs or Cd47-AP (10 min, 37° C.) followed by cell lysis, SIRPα immunoprecipitation, and WB detection of SIRPα phosphorylation (SIRPα^pY) and SHP-1 association. Data presented in each panel represent at least three independent experiments with n≥4, if applicable.
FIGS. 5A-5H include data related to our experiments on the role of Syk in phagocytic activation. […] PEMs were treated with LPS and cytokines in the presence of various inhibitors. After washing, inhibitor-free macrophages were tested for phagocytosis toward RBCs. […] PEMs treated with LPS and activating cytokines, or together with IL-10, were tested for total Syk and phosphorylated Syk (Syk^pY, specific at Y519/520). FIG. 5D describes PMA-induced macrophages phagocytosis toward RBCs. WT and SIRPα^−/− PEMs were treated with PMA (37° C., 30 min) before testing phagocytosis toward RBCs. FIG. 5E is a schematic depiction of PKC-Syk-mediated macrophage phagocytic activation toward self. […] Left: Inhibition of Syk by piceatannol and R406 prevented PMA-induced phagocytic activation. […] Error bars are ±SEM. ***P<0.001 vs. the respective controls. […] LPS-treated WT PEMs were further briefly treated with pervanadate before testing for phagocytosis toward RBCs. Error bars are ±SEM. ***P<0.001 vs. the respective controls. […]

Row | Molecule | anemia and splenomegaly ([1]; SIRPα^−/− and CD47^−/− mice, zymosan 3 times every other day, IL-6 2×10 μg/kg i.v., LPS 0.25 mg/kg i.p., CFA s.c.) | SIRPα ITIM phosphorylation and SHP-1 association [2] | acute anemia and splenomegaly ([1]; CD47^−/− mice, IL-17 injection) | acute anemia and splenomegaly ([1]; healthy SIRPα^−/− mice, 2×10 μg/kg, i.v.)
1 | lipopolysaccharide [LPS] | induced anemia and splenomegaly | a level of SIRPα ITIM phosphorylation and SHP-1 association even in the absence of extracellular CD47 ligation |  | 
2 | B1 |  | a level of SIRPα ITIM phosphorylation and SHP-1 association even in the absence of extracellular CD47 ligation | induced acute anemia and splenomegaly | directly induced acute anemia and splenomegaly
